Patent publication US20080248054

Biological target: Jun kinase JNK1, Q91Y86
Sequence (Q91Y86 whole entry): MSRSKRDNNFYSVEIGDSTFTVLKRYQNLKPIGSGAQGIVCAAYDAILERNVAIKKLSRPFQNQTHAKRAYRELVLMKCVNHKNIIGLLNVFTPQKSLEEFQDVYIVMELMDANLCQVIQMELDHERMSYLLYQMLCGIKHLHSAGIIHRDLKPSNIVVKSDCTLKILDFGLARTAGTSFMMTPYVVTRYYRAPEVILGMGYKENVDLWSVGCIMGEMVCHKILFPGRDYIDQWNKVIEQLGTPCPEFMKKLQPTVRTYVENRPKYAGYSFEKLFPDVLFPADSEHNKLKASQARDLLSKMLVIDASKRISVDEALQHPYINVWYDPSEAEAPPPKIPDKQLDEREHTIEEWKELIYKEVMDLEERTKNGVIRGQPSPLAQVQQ

B1: murine MINK (Misshapen/NIKs-related kinase) (protein)
chain: MGDPAPARSLDDIDLSALRDPAGIFELVEVVGNGTYGQVYKGRHVKTGQLAAIKVMDVTEDEEEEIKQEINMLKKYSHHRNIATYYGAFIKKSPPGNDDQLWLVMEFCGAGSVTDLVKNTKGNALKEDCIAYICREILRGLAHLHAHKVIHRDIKGQNVLLTENAEVKLVDFGVSAQLDRTVGRRNTFIGTPYWMAPEVIACDENPDATYDYRSDIWSLGITAIEMAEGAPPLCDMHPMRALFLIPRNPPPRLKSKKWSKKFTDFIDTCLIKTYLSRPPTEQLLKFPFIRDQPTERQVRIQLKDHIDRSRKKRGEKEETEYEYSGSEEEDDSHGEEGEPSSIMNVPGESTLRREFLRLQQENKSNSEALKQQQQLQQQQQRDPEAHIKHLLHQRQRRIEEQKEERRRVEEQQRREREQRKLQEKEQQRRLEDMQALRREEERRQAEREQEYKRKQLEEQRQSERLQRQLQQEHAYLKSLQQQQQQQQLQKQQQQQQQILPGDRKPLYHYGRGINPADKPAWAREVEERARMNKQQNSPLAKRSQAGAGPEPPISQASPSPPGPLSQTPPMQRPVEPQEGPHKSLVAHRVPLKPYAAPVPRSQSLQDQPTRNLAAFPASHDPDPAAVPTPTATPSARGAVIRQNSDPTSEGPGPSPNPPSWVRPDNEAPPKVPQRTSSIATALNTSGAGGSRPAQAVRASNPDLRRSDPGWERSDSVLPASHGHLPQAGSLERNRNRVGASTKLDSSPVLSPGNKAKPEDHRSRPGRPADFVLLKERTLDEAPKPPKKAMDYSSSSEEVESSEEEEEEGDGEPSEGSRDTPGGRSDGDTDSVTTMVVHDVEEISGTQPSYGGGTMVVQRTPEEERSLLLADSNGYTNLPDVVQPSHSPTENSKGQSPPTKDGGSDYQSRGLVKAPGKSSFTMFVDLGIYQPGGSGDTIPITALVGGEGGRLDQLQFDVRKGSVVNVNPTNTRAHSETPEIRKYKKRFNSEILCAALWGVNLLVGTENGLMLLDRSGQGKVYGLIGRRRFQQMDVLEGLNLLITISGKRNKLRVYYLSWLRNKILHNDPEVEKKQGWTTVGDMEGCGHYRVVKYERIKFLVIALKNSVEVYAWAPKPYHKFMAFKSFADLPHRPLLVDLTVEEGQRLKVIYGSSAGFHAVDVDSGNSYDIYIPVHIQSQITPHAIIFLPNTDGMEMLLCYEDEGVYVNTYGRIIKDVVLQWGEMPTSVAYICSNQIMGWGEKAIEIRSVETGHLDGVFMHKRAQRLKFLCERNDKVFFASVRSGGSSQVYFMTLNRNCIMNW
- levels of phosphorylated JNK in DP thymocytes after CD3/CD28 ligation (Western blot, anti-phospho-JNK1): MINK-deficient DP thymocytes express markedly reduced levels of phosphorylated JNK compared with control mice after CD3/CD28 ligation
